# Laboratory results published in patent US20220153831A1 (HEDGEHOG, published 2022).
# Where a chain is given by its changes, count along the chain named.
# T1: active human ETA (purified) (human, UniProt P25101 21-427)
# T1 construct: also called human endothelin receptor type A
# T1 sequence: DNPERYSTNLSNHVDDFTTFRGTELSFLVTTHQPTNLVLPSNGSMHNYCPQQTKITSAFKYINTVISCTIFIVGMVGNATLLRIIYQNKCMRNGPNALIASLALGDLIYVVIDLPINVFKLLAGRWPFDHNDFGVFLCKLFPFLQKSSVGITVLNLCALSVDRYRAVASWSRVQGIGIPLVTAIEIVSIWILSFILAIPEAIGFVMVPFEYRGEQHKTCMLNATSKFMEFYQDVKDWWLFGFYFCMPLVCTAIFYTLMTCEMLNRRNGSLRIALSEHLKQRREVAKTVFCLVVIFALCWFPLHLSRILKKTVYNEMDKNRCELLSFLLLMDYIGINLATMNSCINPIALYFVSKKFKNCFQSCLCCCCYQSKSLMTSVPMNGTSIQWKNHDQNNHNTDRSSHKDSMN
# B1: AB9 (antibody, V domains shown)
# VH: EVQLVESGAEVRKPGASVKVSCKASGYTFTSSDINWIRQATGQGLEWMGYMNPKNGNTDYAQKFQGRISMTRDSSISTAYMELSSLRSEDTAVYYCAKDRYGSGTYGEGMDVWGPGTLVT
# VL: DIVMTQSPSAMSASVGDRVSITCRASQGINNYLAWFQQKPGKVPKRLMDVGSILQSGIPSRFRGRGSGTQFTLTISSLQAEDSGTYFCLQHNTYPLTFGPGTKVEIKR
# notes: also called lead antibody
# B2: FG12 (antibody, V domains shown)
# VH: B1 VH with S103L, E108F
# VL: B1 VL
# notes: also called lead antibody
# B3: EF12 (antibody, V domains shown)
# VH: B1 VH with R100P, E108F
# VL: B1 VL
# notes: also called lead antibody
# B4: GG12 (antibody, V domains shown)
# VH: B1 VH with T105V, E108F
# VL: B1 VL
# notes: also called lead antibody
# Target: T1, active human ETA (purified)
# Assay: ELISA on purified active ETA
# Method: The cross-binding activities of the developed antibodies to human ETA and mouse ETA were tested by ELISA.
row,binding result,Binder
1,binds,B1
2,binds,B2
3,binds,B3
4,binds,B4
